Experimental data as given in US9265845B2, “Imaging methods using engineered integrin binding peptides” (The Board of Trustees of the Leland Stanford Junior …, priority 2006, dated 2016).
Like-named read-outs stand apart in the source and are kept apart here. One block for each molecule: values may come before it. Positions of bridges follow the written chain, without caps; N, C: chain ends. Residues, ends and D or L forms follow the SMILES beside them. *: point of attachment. DOTA = O=C(O)CN1CCN(CC(=O)O)CCN(CC(=O)*)CCN(CC(=O)O)CC1

Assays:
[1] = MicroPET imaging and biodistribution of radiolabeled peptides in U87MG tumor-bearing mice; type: in vivo, mouse; conditions: female, athymic nude (nu/nu), mouse, in vivo, iv, total radioactivity; for tissue uptake at 0.5 h: 0.5 h post injection; for tissue uptake at 2 h: 2 h post injection; for tissue uptake at 4 h: 4 h post injection; for tissue uptake at 25 h: 25 h post injection
Description: (§1) MicroPET imaging of tumor-bearing mice is performed on a microPET R4 rodent model scanner (Concorde Microsystems Inc, Knoxyille, Tenn.). U87MG tumor bearing mice are injected with PET imaging agent via the tail vein. At various times post injection, the mice are anesthetized with 2% isoflurane, and 10 min static scans are obtained. Images are reconstructed by a two-dimensional ordered expectation maximum subset algorithm as previously described. Regions of interest (ROI) are drawn over the tumor on decay corrected whole body images and ROI derived % injected dose per gram of tissue is determined. Statistical analysis is performed using the student's t-test for unpaired data. A 95% confidence level is used to determine statistical significance.
(§2) Female athymic mice bearing U87MG tumors were injected with 80-150 μCi of ^64Cu-DOTA-knottin 2.5D or 7-9 μCi of [^18F]-FB-E[knottin 2.5D]. Static images were taken at various timepoints post injection using a microPET R4 rodent model scanner (Concorde Microsystems Inc, Knoxyille, Tenn.). […] Uptake was also observed in the kidney as both probes cleared through the bladder.
(§3) Mice are sacrificed by exanguinations at various time points postinjection. Blood, tumor and the major organs and tissues are collected, wet-weighed and measured in a γ-counter. The % injected dose per gram is determined for each sample. For each mouse, radioactivity of the tissue samples is calibrated against a known aliquot of the injectate. Values are reported as the mean±standard deviation.
(§4) The following Table 10 quantifies the ^64Cu-DOTA knottin uptake by direct tissue sampling of the mice up to 24 hours post injection and is reported in % ID (percent injected dose)/gram. Similar results were obtained with [^18F]-FB-E[knottin 2.5D].
(§5) A U87MG glioblastoma xenograft mouse model was used. U87MG cells were maintained at 37° C. in a humidified atmosphere containing 5% CO2 in Dulbecco's modified eagle medium, 10% heat-inactivated fetal bovine serum, and penicillin-streptomycin (all from Invitrogen). Animal procedures were carried out according to a protocol by Stanford University Administrative Panels on Laboratory Animal Care. Female athymic nude mice (nu/nu), obtained at 4-6 weeks of age (Charles River Laboratories, Inc.), were injected subcutaneously in the right or left shoulder with 2×10^7 U87MG glioblastoma cells suspended in 100 μL of PBS. Mice were used for in vivo imaging studies when their tumors reached approximately 8 to 10 millimeters in diameter.
(§6) U87MG tumor-bearing mice (n=3 or more for each probe) were injected with ˜100 μCi of ^64Cu-DOTA-conjugated peptides via the tail vein and imaged with a microPET R4 rodent model scanner (Siemens Medical) using 3 or 5 min static scans. […] Images were reconstructed by a two dimensional ordered expectation maximum subset algorithm and calibrated as previously described (Wu, Y, Zhang, X, Xiong, Z, et al. microPET imaging of glioma integrin {alpha}v{beta}3 expression using (64)Cu-labeled tetrameric RGD peptide. J Nucl Med 2005; 46:1707-18). ROIs were drawn over the tumor on decay-corrected whole body images using ASIPro VM software (Siemens Medical). The mean counts per pixel per minute were obtained from the ROI and converted to counts per milliliter per minute with a calibration constant. ROIs were converted to counts/g/min, and % ID/g values were determined assuming a tissue density of 1 g/mL. No attenuation correction was performed.

U87MG tumor = assay: as above; type: in vivo, mouse; conditions: radiolabeled peptides, U87MG tumor-bearing mice
Description: as §1, §2, §3, §4, §5, §6

αvβ3 integrin = αvβ3 integrin (Homo sapiens, UniProt P05106+P06756); assay: Yeast-displayed peptide binding to soluble αvβ3 integrin, flow cytometry; conditions: yeast-displayed peptides
Sequence of αvβ3 integrin (P06756 31-889 limits assumed): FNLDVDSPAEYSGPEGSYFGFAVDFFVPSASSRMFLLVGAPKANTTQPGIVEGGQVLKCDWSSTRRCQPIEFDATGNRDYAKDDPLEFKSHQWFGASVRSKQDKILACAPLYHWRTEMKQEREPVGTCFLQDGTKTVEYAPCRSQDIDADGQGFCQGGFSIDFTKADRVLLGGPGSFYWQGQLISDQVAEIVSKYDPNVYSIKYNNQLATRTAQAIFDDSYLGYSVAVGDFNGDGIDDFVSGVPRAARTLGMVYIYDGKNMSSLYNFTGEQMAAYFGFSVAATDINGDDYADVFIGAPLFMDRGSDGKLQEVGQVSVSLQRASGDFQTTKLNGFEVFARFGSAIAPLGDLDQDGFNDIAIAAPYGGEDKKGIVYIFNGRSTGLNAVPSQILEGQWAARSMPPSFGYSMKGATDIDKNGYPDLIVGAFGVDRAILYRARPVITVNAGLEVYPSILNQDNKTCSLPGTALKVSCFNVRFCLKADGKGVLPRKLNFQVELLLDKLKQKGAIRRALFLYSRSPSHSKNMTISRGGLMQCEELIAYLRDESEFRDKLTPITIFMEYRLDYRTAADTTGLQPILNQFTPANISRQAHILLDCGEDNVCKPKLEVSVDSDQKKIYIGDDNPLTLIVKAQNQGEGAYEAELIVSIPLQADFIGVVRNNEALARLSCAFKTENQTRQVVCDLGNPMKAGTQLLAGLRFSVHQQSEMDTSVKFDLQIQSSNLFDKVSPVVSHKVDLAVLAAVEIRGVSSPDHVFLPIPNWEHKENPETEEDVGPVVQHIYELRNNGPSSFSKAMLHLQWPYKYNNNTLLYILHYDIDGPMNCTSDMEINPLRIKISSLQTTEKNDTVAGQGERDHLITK
Sequence of αvβ3 integrin (P06756 891-1048 partner limits assumed): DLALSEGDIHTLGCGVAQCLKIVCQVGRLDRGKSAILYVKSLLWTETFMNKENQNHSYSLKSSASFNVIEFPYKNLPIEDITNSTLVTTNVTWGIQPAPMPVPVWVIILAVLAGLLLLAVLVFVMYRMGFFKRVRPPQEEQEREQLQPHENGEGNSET
Sequence of αvβ3 integrin (P05106 27-788): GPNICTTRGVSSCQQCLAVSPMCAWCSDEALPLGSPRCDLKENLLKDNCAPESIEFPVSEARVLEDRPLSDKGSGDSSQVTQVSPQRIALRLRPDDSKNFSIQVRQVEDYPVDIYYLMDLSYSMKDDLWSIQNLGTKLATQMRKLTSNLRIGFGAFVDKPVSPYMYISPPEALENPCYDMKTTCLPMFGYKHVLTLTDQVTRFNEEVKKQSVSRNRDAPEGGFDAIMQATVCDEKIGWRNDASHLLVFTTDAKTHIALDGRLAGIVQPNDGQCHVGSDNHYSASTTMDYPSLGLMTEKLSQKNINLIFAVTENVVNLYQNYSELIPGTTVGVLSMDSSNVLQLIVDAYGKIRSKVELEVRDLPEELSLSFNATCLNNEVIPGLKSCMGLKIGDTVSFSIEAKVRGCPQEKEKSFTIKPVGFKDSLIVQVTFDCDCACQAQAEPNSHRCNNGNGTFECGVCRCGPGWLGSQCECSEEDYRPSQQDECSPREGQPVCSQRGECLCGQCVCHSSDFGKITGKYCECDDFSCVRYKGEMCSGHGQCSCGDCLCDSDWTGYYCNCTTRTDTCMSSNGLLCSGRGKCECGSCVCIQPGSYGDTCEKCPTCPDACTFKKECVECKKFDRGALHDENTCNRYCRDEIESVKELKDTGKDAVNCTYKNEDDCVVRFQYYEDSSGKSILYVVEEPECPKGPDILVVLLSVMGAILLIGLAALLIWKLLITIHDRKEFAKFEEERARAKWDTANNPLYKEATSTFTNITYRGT
Description: The yeast display construct shown in FIG. 1A has the general orientation: Aga2-HA-engineered knottin—c-myc epitope, with the c-myc epitope at the carboxy terminus of the peptide. […] Bound integrin is detected with an anti-integrin antibody, labeled with FITC.
Below is a typical protocol to label a yeast library samples for sorting by flow cytometry (FACS): • 1. Want 2×10^6 cells, OD600 of […] • 2. Add 1 mL PBS/BSA (phosphate buffered saline containing 1 mg/mL bovine serum albumin) to wash cells • 3. Spin down cells 3 min at 8000 RPM • 4. Remove supernatant using vacuum • 5. Re-suspend in 40 μL PBS/BSA containing proper amount of integrin (100 nM [2.5 μL of stock αvβ3]; no anti-cmyc at this point) • 6. Incubate for 1.5 h at r.t (w/tumbling) • 7. Add 1:250 dilution of (chick anti-cmyc) to labeling solution • 8. […] Incubate 1 h at 4° C. (w/tumbling) • 10. Keep on ice after this step. • 11. Spin down cells 3 min at 8000 RPM, 4° C. and vacuum supernatant • 12. Repeat wash steps 2-4 • 13. Re-suspend in 40 μL PBS/BSA containing proper amount of secondary labels (secondary labeling is simultaneous) • i. Anti-integrin Ab (FITC conj): 1:25 dilution+Anti-chick (Alexa 555): 1:100 dilution • ii. Positive control: Anti-chick (Alexa 555): 1:100 dilution (for FACS compensation) • iii. Positive control: Anti-chick (Alexa 488): 1:100 dilution (for FACS compensation) • 14. Incubate on ice 30 min and keep in dark (lid on ice bucket) • 15. Spin down cells at 3 min at 8000 RPM, 4° C. and vacuum supernatant • 16. Repeat steps 2-4: Add 1 mL PBS/BSA, pellet cells, vacuum supernatant • 17. Leave pelleted cells on ice until use. Fluorescent Cell Sorting
Commercially available flow cytometers can measure fluorescence emissions at the single-cell level at four or more wavelengths, at a rate of approximately 50,000 cells per second (Ashcroft and Lopez, 2000). Typical flow cytometry data are shown in FIG. 4-7, in which yeast have been labeled with two different color fluorescent probes to measure protein expression levels and bound soluble ligand (in this case integrin receptor). A ‘diagonal’ population of cells results due to variation in protein expression levels on a per cell basis: cells that express more protein will bind more ligand. The equilibrium binding constant (Kd) can be determined by titration of soluble ligand, and the dissociation rate constant (koff) can be measured through competition binding of unlabeled ligand. With yeast, a monodispersity of tethered proteins exists over the cell surface, and soluble ligand are used for binding and testing, such that avidity effects are not observed, unlike other display methods using immobilized ligands. To date, the properties of most proteins expressed on the yeast cell surface mimic what is seen in solution in terms of stability and binding affinity (Bader et al., 2000; Feldhaus et al., 2003; Holler et al., 2000; VanAntwerp and Wittrup, 2000). See, also, Weaver-Feldhaus et al., “Directed evolution for the development of conformation-specific affinity reagents using yeast display,” Protein Engineering Design and Selection Sep. 26, 2005 18(11):527-536.
Cell sorting was carried out on a FACSVantage (BD Biosciences) multiparameter laser flow cytometer and cell sorter. Before sorting, fluorescent staining was carried out as described above, so that analysis of integrin binding and c-myc expression levels were detected, as described above. […]

[2] = direct tissue sampling, read-out: Kidney uptake, mean
[3] = direct tissue sampling, read-out: Liver uptake, mean
[4] = direct tissue sampling, read-out: Muscle uptake, mean
[5] = direct tissue sampling, read-out: Tumor uptake, mean

Molecule: CC(C)[C@@H]1NC(=O)[C@@H]2CSSC[C@H](NC(=O)CNC(=O)CN3CCN(CC(=O)O)CCN(CC(=O)O)CCN(CC(=O)O)CC3)C(=O)N3CCC[C@H]3C(=O)N[C@@H](CCC(N)=O)C(=O)NCC(=O)N[C@@H](CCCNC(=N)N)C(=O)NCC(=O)N[C@@H](CC(=O)O)C(=O)N[C@@H](Cc3c[nH]c4ccccc34)C(=O)N[C@@H](C)C(=O)N3CCC[C@H]3C(=O)N[C@@H]([C@@H](C)O)C(=O)N[C@@H](CO)C(=O)N[C@H]3CSSC[C@H](NC1=O)C(=O)NCC(=O)N1CCC[C@H]1C(=O)N[C@@H](CC(N)=O)C(=O)NCC(=O)N[C@@H](Cc1ccccc1)C(=O)N[C@H](C(=O)NCC(=O)O)CSSC[C@H](NC(=O)[C@H](CC(=O)O)NC(=O)[C@H](CO)NC(=O)[C@H](CC(=O)O)NC(=O)[C@H](CCC(N)=O)NC(=O)[C@H](CO)NC3=O)C(=O)N[C@@H](CCCNC(=N)N)C(=O)N[C@@H](C)C(=O)NCC(=O)N2 [^64Cu-DOTA-knottin 2.5D, metal not drawn] ({DOTA}-GCPQGRGDWAPTSCSQDSDCRAGCVCGPNGFCG-OH; disulfide 2-24, 14-26, 20-32; C-terminus assumed)
tissue uptake at 0.5 h [1, 2]: 7.26 %ID/g | tissue uptake at 0.5 h [1, 3]: 1.39 %ID/g | tissue uptake at 0.5 h [1, 4]: 0.45 %ID/g | tissue uptake at 0.5 h [1, 5]: 4.94 %ID/g | tissue uptake at 1 h ([1]; 1 h post injection, direct tissue sampling, read-out: Kidney uptake, mean): 4.06 %ID/g | tissue uptake at 1 h ([1]; 1 h post injection, direct tissue sampling, read-out: Liver uptake, mean): 1.29 %ID/g | tissue uptake at 1 h ([1]; 1 h post injection, direct tissue sampling, read-out: Muscle uptake, mean): 0.28 %ID/g | tissue uptake at 1 h ([1]; 1 h post injection, direct tissue sampling, read-out: Tumor uptake, mean): 4.47 %ID/g | tissue uptake at 2 h [1, 2]: 3.45 %ID/g | tissue uptake at 2 h [1, 3]: 0.98 %ID/g | tissue uptake at 2 h [1, 4]: 0.07 %ID/g | tissue uptake at 2 h [1, 5]: 2.89 %ID/g | tissue uptake at 4 h [1, 2]: 3.26 %ID/g | tissue uptake at 4 h [1, 3]: 0.92 %ID/g | tissue uptake at 4 h [1, 4]: 0.06 %ID/g | tissue uptake at 4 h [1, 5]: 2.24 %ID/g | tissue uptake at 25 h [1, 2]: 1.75 %ID/g | tissue uptake at 25 h [1, 3]: 0.53 %ID/g | tissue uptake at 25 h [1, 4]: 0.03 %ID/g | tissue uptake at 25 h [1, 5]: 1.31 %ID/g | PET tumor targeting / imaging signal, in words (U87MG tumor): clearly targeted the U87MG tumor

integrin binding compared in words (αvβ3 integrin): RGD-AgRP #1<#2, <#3
Molecule: GCVRLHESCLGQQVPCCDPCATCYCTGRGDSCYCRKLGTAMNPCSRT [RGD-AgRP#2]

integrin binding compared in words (αvβ3 integrin): RGD-AgRP #1<#2, <#3
Molecule: GCVRLHESCLGQQVPCCDPCATCYCRGDCYCRKLGTAMNPCSRT [RGD-AgRP#1]

Molecule: RGD-EETI#2: EETI-II scaffold with native fibronectin RGD loop, RGD at insert positions 3-5, SEQ ID NO: 20 (GCTGRGDSPASSKCKQDSDCLAGCVCGPNGFCG)
integrin binding compared in words (αvβ3 integrin): approximately half the affinity of RGD-EETI#3

integrin binding compared in words (αvβ3 integrin): RGD-AgRP #1<#2, <#3
Molecule: CVRLHESCLGQQVPCCDPCATCYCTGRGDSPASCYCRKLGTAMNPCSRT [RGD-AgRP#3]

Molecule: N=C(N)NCCC[C@@H]1NC(=O)[C@H](CCCCN)NC(=O)[C@@H](Cc2ccc(O)cc2)NC(=O)[C@H](CC(=O)O)NC(=O)CNC1=O [c(RGDyK), reference compound]
tissue uptake at 1 h ([1]; Tumor uptake): 2.32 ± 0.55 %ID/g | tissue uptake at 1 h ([1]; non-specific liver uptake): ~4 %ID/g
